According to the supplement of paper PMC9170038:

Test system: K4 kissing-loop RNA reporter
Experiment: apparent KD of K4 kissing-loop reporter; higher = weaker reporter binding
Details: Eterna round: R107
Protocol: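 RNA-MaP round R107: designed RNA switches with theophylline, tryptophan, arginine or FMN aptamers are transcribed on-chip within common flanks. They are titrated with a labelled K4 kissing-loop RNA reporter in RNA-MaP buffer (100 mM Tris pH 7.5, 80 mM KCl, 4 mM MgCl2), without ligand or with the indicated ligand. Median apparent KD per design.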

[1] = input ligand: theophylline 20 uM
[2] = input ligand: tryptophan 2.4 mM
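Note: bound reporter read as fluorescence of individual clusters on recovered sequencing chips by microscopy, with normalized cluster intensities fitted with a binding model.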

Sequence | apparent KD of K4 kissing-loop reporter (input ligand: FMN 200 uM) [nM] | apparent KD of K4 kissing-loop reporter (input ligand: arginine 13.2 mM) [nM] | apparent KD of K4 kissing-loop reporter (input ligand: none) [nM] | apparent KD of K4 kissing-loop reporter [1] [nM] | apparent KD of K4 kissing-loop reporter [2] [nM]
GGAUGGUAGGCGGCCGCCACUAAAAGUGAACACAUACAAGCCAGUGAUGUUGGUAUGAUGGACUAUAGGACCGGGCCUAGAUAGA [Exclusion - Tryptophan B (Freestyle 6)] | 468 | 410 | 522 | 454 | 466
GGCACUUUUGGUAGACACCAUCUACCUCUAUAGGAUAUGCCGAAAGGCAGAAGGAUAGACCUACAGAGUGAUGUUCUGCGUGCCU | 686 | 801 | 1230 | 946 | 849
GGCAGUGAUGUUGCCUAAGCAAUGCAUGCGGAGGAUAUUCGUUUGGGAAGAAGGCCGCAGCGUUCUCUCGAGUGAUGUUCGAGUA [Same State FMN A GF 20] | 155 | 141 | 153 | 158 | 126
GGCAUCCAUGGACAUAGUGAUGUUAUGUGCCGAGGACCGGUACGGCCGCCACUCGACCAUGGAUGCCGCAAUCGGAAACGAUUGC | 1090 | 915 | 1610 | 888 | 115
GGCCGGCCGGGAAGGAGCGGGAGUGAUGUUUUCGCAAAGAAAGAUAUAAAAGAAACGAAAUCCCAGGUAGGUCGCCCGGCCGGUU | 64.4 | 113 | 91.3 | 160 | 66.4
GGCGCUGUCUGUGCCGCCCUCCUCGUCCCUCGAGGACCGGUACGGCCGCCACUCGAGUGAUGUUCGGGUAGCCCUCCCUGCCAGC [BDazzled - #22 Exc. Tryptophan A] | 462 | 320 | 492 | 382 | 233
GGCGGCCGCGCGAAAGCGCGGCCGGCCGAUACCAGCGCGACGGCGCGCCCUUGGCAGCGGCGCCGAGUGAUGUUCGGCCUGCCGU [#2 Same State - Theophylline A Attempt #13 (HarryS)] | 126 | 122 | 117 | 145 | 116
GGGAGAAGUGGUGUUGAUUAAGAAGCGGAAGGAGCGCCGAAGAAGGCAGGUAGGUCGCCGAAAUAUAGUGAUGUUAUAUAAAGGG [ExArg.B] | 155 | 184 | 137 | 218 | 152
GGGAGUAGUGCGGCCGCCACUGAGAAAGAAGAAGAAUAUAGUGAUGUUAUAUAGGAAAGGAAGAACAGGACCGGGCAUUAGAGGG [SSTRyptB.C] | 163 | 171 | 147 | 243 | 131
GGGAGUUAUUACGGCAGGGUCGAUACGGAUACCAGUAGGCGGCUCUACCCUUGGCAGCCGUAACAUGGUAGUGAUGUUAUCAGUC [theeternabot_exclusion_KL_Theo_A_24] | 527 | 420 | 518 | 468 | 405
GGGAUGUAGGGAAGGAGCGCUUUGCGAAUAUUAAUGAGUGAUGUUCGUAGAUAUUUGUAAUGGCAGGUAGGUCGCCCUAUAUCCC [Skye_SS_AB] | 197 | 131 | 166 | 151 | 157
GGGCCUAUUGAUGCUGGAGCAAUUCUGGAAGGAGCGCUCAAAGGAGCAGGUAGGUCGCCAGUAUGCAAGGGCAGUGAUGUUGCCC [Ersoarxe] | 238 | 164 | 233 | 145 | 189
GGGCGUGGCGCGGCCGCCACUGGGCCUGGGCGCUCGCUGAGUGAUGUUCGUCGGCGGCUGGGUCGUAGGACCGGGUGCUGGUUGG [BDazzled - #7 SS Tryptophan B] | 529 | 309 | 438 | 424 | 302
GGGUCUGUCGGAAGGAGCGCACUAUGGAGUGAUGUUCCAUGACCGCACAGCUUGCGGUCAGUGCAGGUAGGUCGCCGAUAGCUUU [Usquso] | 277 | 169 | 197 | 286 | 164
GGGUGGCAGGCGGCCGCCACUCUGAGCACCCACUGAGUGAUGUUCGUGGCGUAAGACUGUUCGUAGAGGACCGGGUUUGUUGUUC [Same State Tryptophan B GF 23] | 203 | 143 | 214 | 306 | 205
GGUAGCAUGGCGGCCGCCACUACCUAGUGAUGUUAGGCUGUGGACAUAGGAGCAAGACAAAUAUGUAGGACCGGGCCAUGCUACC | 126 | 92.8 | 111 | 124 | 131
GGUAGCAUGGCGGCCGCCACUGGAGAGUGAUGUUCUCCACUAGGUUACAACGCCGGACAGUCCACCAGGACCGGGCCAUGCUACC | 140 | 106 | 131 | 129 | 436
GGUAGCGCCAGAGAUACCAGUCAUAUCGCUCUGGAGUGAUGUUCCGGAACGUGCGGAGAAGACCCUUGGCAGCUCAUGACGGUAU [Exclusion Theophylline B GF 3] | 219 | 175 | 189 | 227 | 171
